These results are taken from the nanobody polyreactivity screen of Harvey et al. (2022).

The data set is described as follows: yeast display, Sf9 membrane polyspecificity reagent, FACS + sequencing; frameworks hold sequencing errors. A digest of the protocol:
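Genes from sorted yeast were amplified by colony PCR, read by MiSeq 2 × 250 sequencing and filtered on CDR length. These cells carried a synthetic nanobody library in Saccharomyces cerevisiae BJ5465 and were sorted by FACS into low and high (top ~1%) gates on anti-HA and streptavidin fluorescence. Polyreactivity is labelled according to the gate of origin.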
With “QVQLVESGGGLVQAGGSLRLSCAASGFTFDYYTMGWYRQAPGKERELVATITRSAGRTYYADSVKGRFTISRDNAKNTVYLQMNSLKPEDTAVYYCNADAYVYFDDGDYWGQGTQVTVSS”, the “polyreactivity (PSR sort gate)” value was “low polyreactivity”.

With “QVQLVESGGGLVQAGGSLRLSCAASGFTFEDYAMGWYRQAPGTERELVAAISSRGTSTYYADSVKGRFTISRDNAKNTVYLQMNSLKPEDTAVYYFNKRGWYPYGYWGQGTQVTVSS”, the “polyreactivity (PSR sort gate)” value is listed as “high polyreactivity”.

Consider “QVQLVESGGGLVQAGGSLRLSCAASGFTFEENAMGWYRPAPGKERELVAAINWSGGNTYYADSVKGRFTISRDNAKNPDSLQMNSLKPEDSAVYYCNAAGAGDDYDYWGQGTQVTVSS”, for which the “polyreactivity (PSR sort gate)” value is given as “high polyreactivity”.

As for “QVQLVESGGGLVQAGGSLRLSCAASGFTFEGYAMGGYRQAPGKERELVAAINGSGGSTYYADSVKGRFTISRDYAKNTVYLQMNSLKPEDTAVYYCAKSGYGNRGFDYWGQGTQVTVSS”, the “polyreactivity (PSR sort gate)” value is listed as “low polyreactivity”.

For “QVQLVESGGGLVQAGGSLRLSCAASGFTFEKNAMGWYRQAPGKERELVAAISRGGSTYADSVKGRFTISRDNAKNTVYLQMNSLKPEDTAVYYCAGDTVYIFSSAINGEFGYWGQGTQVTVSS”, the “polyreactivity (PSR sort gate)” value is listed as “low polyreactivity”.

Take “QVQLVESGGGLVQAGGSLRLSCAASGFTFERNAMGWYRQAPGKERELVATISQSGTNTYYADSVKGRFTISRDNAKNTVYLQMNSLKPEDTAVYYCNARYLFYRYDYWGQGTQVTVSS”: the “polyreactivity (PSR sort gate)” value is “low polyreactivity”.

For “QVQLVESGGGLVQAGGSLRLSCAASGFTFEYYAMGWYRPAPGKERELVADITTSSAGTYYADSVKGRFTISRDNAKNTVYLQMNSLKPEDTAVYYCNRDDLNTGEDLDYWGQGTQVTVSS”, the “polyreactivity (PSR sort gate)” value was “low polyreactivity”.

Regarding “QVQLVESGGGLVQAGGSLRLSCAASGFTFFDYVMGWYRQAPGKERELVAAISSSGGSTNYADSVKGRFTISRDHAKNTVYLQMNSLKPEDTAVYYCNKVTYGYAYWRYDGYDYWGQGTQVTVSS”, the “polyreactivity (PSR sort gate)” value was “low polyreactivity”.

As to “QVQLVESGGGLVQAGGSLRLSCAASGFTFFIYAMGWYTQAPGKEREFVAAITGSGGSTYYADSEKGRFTISRDNAKNTVYLQMNSLKTEVTAVYYCATGYWGRRRGGWRSGYWGQGTQVTVSS”, the “polyreactivity (PSR sort gate)” value is given as “high polyreactivity”.

As to “QVQLVESGGGLVQAGGSLRLSCAASGFTFFKYAMGWYRQAPGKERELVAAISSSGGSTYYADSVKGRFTISRDNAKNTVYLQMNSLKPEDSAVYYCNRPAAVYFKLVTAYDYWGQGTQVTVSS”, the “polyreactivity (PSR sort gate)” value is “high polyreactivity”.

In the case of “QVQLVESGGGLVQAGGSLRLSCAASGFTFFLNAMVWSRPAPGKERELVAAITYSGDSTYYADSVKGRFTISRDNAKNTVYLQMNSLKPEDTAVYYCAAASKFGLYEYEYWGQGTQVTVSS”, the “polyreactivity (PSR sort gate)” value is “low polyreactivity”.

As for “QVQLVESGGGLVQAGGSLRLSCAASGFTFFLYTMGWYRQAPGKERELVATITSAGTTNYADSVKGRFTISRDNAKNTVYLQMHSLKPEDTAVDYCNADRWEYDYWGQGTQVTVSS”, the “polyreactivity (PSR sort gate)” value is given as “low polyreactivity”.

Regarding “QVQLVESGGGLVQAGGSLRLSCAASGFTFFSKYVMGWYSQAPRKERELVAAISSSGGTTYYADSVKGRFTISRDNAKNTVYLQMNSLKPEDTAVYYCAARLVSSTFQYNMYYWGQGTQVTVSS”, the “polyreactivity (PSR sort gate)” value is on record as “high polyreactivity”.

Consider “QVQLVESGGGLVQAGGSLRLSCAASGFTFFSNAMGWYRQAPGKEREFVASISRSGGRTYYADSVKGRFTISRDNAKNTVYLQMNSLKPEDTAVYYCAADVPYYLHNHRYGYWGQGTQVTVSS”, for which the “polyreactivity (PSR sort gate)” value is “high polyreactivity”.

Turning to “QVQLVESGGGLVQAGGSLRLSCAASGFTFFYYVMGWYRQAPGKERELVAAISSGGSTYYADSVKGRFTISRDNAKNTVYLQMNSLKPEDTAVYYCNAVYRSTWWGYDYWGQGTQVTVSS”, the “polyreactivity (PSR sort gate)” value is on record as “high polyreactivity”.

In the case of “QVQLVESGGGLVQAGGSLRLSCAASGFTFFYYVMGWYRQAPGKERELVAAITRGGSTYYADSVKGRFTISRDNAKNTVYLQMNSLKPEDTAVYYCNVAEPGYYYGYGDYGMDYWGQGTQVTVSS”, the “polyreactivity (PSR sort gate)” value was “high polyreactivity”.

On to “QVQLVESGGGLVQAGGSLRLSCAASGFTFGANVMGWYRQAPGKERELVAAINTRGSRTYYADSVKGRFTISRDIAKNTVYLQMNSLKPEDTAVYYCAAALRKEYDYWGQGTQVTVSS”, for which the “polyreactivity (PSR sort gate)” value is “high polyreactivity”.

On to “QVQLVESGGGLVQAGGSLRLSCAASGFTFGANVMGWYRQAPGKERELVAAITSSGGSTYYADSVKGRFTISRDKAKNTVYLQMYSLKPEDTAVYYCNRRRGAYYGYYWGQGTQVTVSS”, for which the “polyreactivity (PSR sort gate)” value is “high polyreactivity”.

As for “QVQLVESGGGLVQAGGSLRLSCAASGFTFGDYAMYWVRQAPGKGLEWVSSIDSRGGSTYYADSVKGRFTISRDNAKNTVYLQMNSLKPEDTAVYYCAKPGNHRYDYWGQGTQVTVSS”, the “polyreactivity (PSR sort gate)” value was “high polyreactivity”.

Turning to “QVQLVESGGGLVQAGGSLRLSCAASGFTFGENAIGWYRQAPGKERELVAAIRYSGGSTYYADSVKGRFTISRDNAKNTVYLQMNSLKPEDTAVYYCNADTYALGAAVIPGDEYWGQGTQVTVSS”, the “polyreactivity (PSR sort gate)” value is listed as “low polyreactivity”.

Take “QVQLVESGGGLVQAGGSLRLSCAASGFTFGENDMGWYRQAPGKERELVATISYSGDSTYYAVSVKGLFTISRVNGKNTVYLHMNSLKPEDTAVYYCAAPLPHRVYDEGYWRQGTQVTVSS”: the “polyreactivity (PSR sort gate)” value is reported as “low polyreactivity”.

For “QVQLVESGGGLVQAGGSLRLSCAASGFTFGFNTMGWYRQAPGKERELVATITSGGSTYYADSVKGRFTISRDNAKNTVYLQMNILKPEDTAVYYCAATAGSPWAKSRYGYWGQGTQVTVSS”, the “polyreactivity (PSR sort gate)” value is listed as “low polyreactivity”.

“QVQLVESGGGLVQAGGSLRLSCAASGFTFGFYAMGWYRQAPGEEWELVATISSAGSTTYADSVKGRFTLSRDNAKHTVYLQMNSLKPEETAVYYCATRRWSWPQFRTGDYWGQGTQVTVSS”: the “polyreactivity (PSR sort gate)” value was “high polyreactivity”.

As to “QVQLVESGGGLVQAGGSLRLSCAASGFTFGFYAMGWYRQAPGKERELVATINYNGGSTYYADSVKGRFTISRDNAKNTVYLEMNSLKPEDTAVYYCATDYGWAPSYWYDSCGQGTQVTVSS”, the “polyreactivity (PSR sort gate)” value was “low polyreactivity”.

As to “QVQLVESGGGLVQAGGSLRLSCAASGFTFGHYAMGRYRQAPGKERELVAAIRWSGGSTYYADSVKGRFTISRDNAKNTVYLQMNSLKPEDTAVYYCAADGEDSLWTGYDYDYWGQGTQVTVSS”, the “polyreactivity (PSR sort gate)” value was “low polyreactivity”.

Regarding “QVQLVESGGGLVQAGGSLRLSCAASGFTFGHYAMGWDRQAPGKERELVAAISSGDRTYYADSVKGRFTISRDNAKNTVYLQMNSLKPEDTAVYSCNAVYYSWAQSARFDYWGQGTQVTVSS”, the “polyreactivity (PSR sort gate)” value is “low polyreactivity”.

For the sequence “QVQLVESGGGLVQAGGSLRLSCAASGFTFGHYAMGWYRQAPGKERELVAAIRWSGGSTYYADSVKGRITISRDHAKNTVYLQMNSLKPEDTAVYYCGARRFDGYDYDYWGQGTQVTESS”, the “polyreactivity (PSR sort gate)” value is listed as “low polyreactivity”.

On to “QVQLVESGGGLVQAGGSLRLSCAASGFTFGKYDMGWYRQAPGKERELVATITSSGDSTYYADSVKGRFTISRDNAKNTVYLQMNSLKPEDTAVYYCATPYGRHGWFYLYDYWGQGTQVTVSS”, for which the “polyreactivity (PSR sort gate)” value is given as “low polyreactivity”.

For the sequence “QVQLVESGGGLVQAGGSLRLSCAASGFTFGLNAMGWYRQAPGKERELVAGISRNGGRTYYADSVKGRFTISRDNAKNTVYLQMNSLKPDDTAVYYCNKVVSTYWTKSRVQWRYSRYDYWGQGTQVTVSS”, the “polyreactivity (PSR sort gate)” value is “high polyreactivity”.

Turning to “QVQLVESGGGLVQAGGSLRLSCAASGFTFGNNAMGWYRQAPGKERELVAGISRTGGRTYYADSVKGRFTISRDNAKNTVYLQMNSLKPEDTAVYYCNAVSTLYTGYDYWGQGTQVTVSS”, the “polyreactivity (PSR sort gate)” value is recorded as “high polyreactivity”.
